This note sets out measurements from the emibetuzumab library of Makowski et al. (2022).

B1: VH:VL chains; a variant is named by its letters at X, in order (parent)
chain 1: QVQLVQSGAEVKKPGASVKVSCKASGYTFTDYXMHWVRQAPGQGLEWMGXVNPNXXXTTYNQKFEGRVTMTTDTSTSTAYMELRSLRSDDTAVYYCARXNXLDXWGQGTTVTVSS
chain 2: DIQMTQSPSSLSASVGDRVTITCSVSSSVSSIYLHWYQQKPGKAPKLLIYSTSNLASGVPSRFSGSGSGTDFTLTISSLQPEDFATYYCQVYSGYPLTFGGGTKVEIK

In this data set the parent is B1. The data set is described as follows: yeast display scFab, FACS + sequencing. An outline of the steps:
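For the non-specific binding call, a heavy-chain CDR mutant scFab library on the yeast surface was FACS-sorted and samples from two replicates were deep sequenced. Cells were labelled with anti-Myc and either biotinylated ovalbumin (260 μg/mL in PBSB, 3 h, room temperature) or soluble membrane proteins (130 μg/mL, 20 min on ice), with gates on the top 25% and bottom 10% of binders. With membrane protein and ovalbumin samples pooled, a sequence in ≥3 of 4 positive samples and no negatives was scored positive, and the converse rule scored negatives.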
As to FRKRSFSS, the non-specific binding call is recorded as “binds”.
Under SKTKSDVD stands “no binding”.
For the variant SGRGNDAV, the non-specific binding call is “no binding”.
As to SARKGDVA, the non-specific binding call is listed as “no binding”.
FRGKGAGS: the non-specific binding call was “binds”.
In the case of VKGRADAV, the non-specific binding call is “no binding”.
As for VKGRADAA, the non-specific binding call is given as “no binding”.
The value for YKGADFGD was “binds”; that for FRAGDYLV was “no binding”; that for VRRGDAGY was “no binding”.
For the variant YTEEGDWV, the non-specific binding call is reported as “no binding”.
VAEKGAGD: the non-specific binding call was “no binding”.
As to FAEGSYAF, the non-specific binding call is listed as “binds”.
The value for YRRGGSVD was “binds”; that for AAARNFLF chain 1 V68I was “binds”; that for FRRKDDWA was “binds”.
The value for FKGRGSSS was “binds”; that for YRAKGSGV was “binds”; that for VRAGDALV was “no binding”.
The value for FARGASGV was “binds”; that for SRTRDAGD was “no binding”; that for YRGAGALV was “binds”.
AKAADSSD: the non-specific binding call is “binds”.
Regarding YRGGGSAA, the non-specific binding call was “binds”.
Under FTRRSSLF chain 1 V111I stands “binds”; under VKKESSGF, “binds”; under SEARSAVA, “no binding”.
FKKGSAVA: the non-specific binding call was “binds”.
Take FRGRGYWV: the non-specific binding call is listed as “binds”.
The value for YRRRGAGF was “binds”.
The value for YRRRGAGY was “binds”; that for SKGRGAVY was “binds”; that for VRGTGVAV was “binds”.
For the variant SGETGDSV, the non-specific binding call was “no binding”.
As for DAKEGSSA, the non-specific binding call is given as “no binding”.
Under YRRGSAGS stands “binds”; under YGKGTSGF, “no binding”; under SEARSDWD, “no binding”.
Under VKAGDAAV stands “no binding”.
Turning to VRRRGSGD, the non-specific binding call is recorded as “binds”.
The value for YAARAALD was “binds”; that for YRARSSWD was “binds”; that for YTGTSDLA was “no binding”.
As to VRTAASGD, the non-specific binding call is listed as “binds”.
Under YKGKGSLD stands “binds”.
The value for YRERAAGY was “binds”.
Consider FKGKGSGA, for which the non-specific binding call is “binds”.
As to FRGGSVGY, the non-specific binding call was “binds”.
For the variant YRRGASSS, the non-specific binding call was “binds”.
Under VRRGGSGD stands “binds”; under AEREADWV, “no binding”; under FGATSFSV, “binds”.
The value for YAGAGSAD was “no binding”.
The value for DAGGGDWD was “no binding”; that for YRGGGALS was “binds”; that for VKRATVLA was “binds”.
As to VRTGAVGD, the non-specific binding call was “binds”.
As to VEEEGAGV, the non-specific binding call is given as “no binding”.
Take AARADDVY: the non-specific binding call was “no binding”.
Take YRREGSAV: the non-specific binding call is “binds”.
Under YRGRGFGS stands “binds”.
The value for FRARSAAA was “binds”.
The value for YRGANSVF was “binds”; that for YRAGDSSA was “no binding”; that for VTTKSDLA was “no binding”.
On to VRGRDDVV, for which the non-specific binding call was “no binding”.
For the variant DREEGSWV, the non-specific binding call is reported as “no binding”.
As to FARAAALD, the non-specific binding call was “binds”.
VREAADSF: the non-specific binding call is given as “no binding”.
Under VAEEDAGY stands “no binding”; under VAGTGFWV, “binds”; under YKAGDVSV, “binds”.
Consider YRRGSSLF, for which the non-specific binding call is “binds”.
For the variant VRGKGSLA, the non-specific binding call is on record as “binds”.
The value for FRGRDFLF was “binds”; that for DRAGDSWA was “no binding”.
Under YKGGGSAV stands “binds”.
As for YREKGAAA, the non-specific binding call is reported as “binds”.
Turning to YKAKGAAD, the non-specific binding call is “binds”.
As for YKGRGYVA, the non-specific binding call is “binds”.
For FRGRDFGS, the non-specific binding call is “binds”.
Under YKRGDAVF stands “no binding”; under YRRRSSVD, “binds”.
Consider YKGKGDGD, for which the non-specific binding call is “binds”.
The value for FRRGGAVV was “binds”; that for YKARGAVY was “binds”.
Consider YRREGSVV, for which the non-specific binding call is “binds”.
Under YRGKSAAV stands “binds”; under VRTEDSLD, “no binding”; under DKKKDVVF, “binds”.
Under YRTRSSWD stands “binds”.
Under YTTGGDVA stands “no binding”; under VGGTSDGV, “no binding”.
As to DAGRGDGF, the non-specific binding call is given as “no binding”.
In the case of DEGGTAGV, the non-specific binding call was “no binding”.
For the variant FRRGSAVA, the non-specific binding call is “binds”.
As to DARGGAGA, the non-specific binding call is “no binding”.
Under YKTGDDGV stands “no binding”; under VEGGGAGV, “no binding”.
Under VRTEDDLV stands “no binding”; under SRTRGFGS, “binds”.
Consider VEKKDYSA, for which the non-specific binding call is reported as “no binding”.
Under YRGRDASA stands “binds”; under YRGKGSWS, “binds”.
Regarding DARGGSSA, the non-specific binding call is “no binding”.
Under VEGGGDAA stands “no binding”; under YATEAFSD, “binds”; under VKARGAAV, “binds”.
The value for FRRGGSLD was “binds”; that for YRGGDDSS was “no binding”.
DTGGGDAA: the non-specific binding call is on record as “no binding”.
Under DTGGGDAY stands “no binding”; under FRERGAGY, “binds”; under YRGRGVAV, “binds”.
In the case of VRRRSSLA, the non-specific binding call is reported as “binds”.
For the variant DTTGSDWV, the non-specific binding call is “no binding”.
Under VTGEADAS stands “no binding”; under SKGASAWA, “binds”.
For the variant VRAETDVY, the non-specific binding call is recorded as “no binding”.
